According to patent publication US20250059280A1 (AbbVie / Abbott, published 2025):

Columns and labels:
[1] = biological target: T1, human programmed death receptor 1 (PD-1) (human, UniProt Q15116 25-288); test: in vitro PD-1 receptor saturation on CD8+ T cells, flow cytometry, whole blood, Emax model fit
T1 construct: whole, on cells; Endogenous PD-1 on T cells of donors or study subjects; also called PD-1 receptor

[2] = biological target: T1, human programmed death receptor 1 (PD-1); test: ratio of in vitro PD-1 receptor saturation EC50 values on CD8+ T cells, reference mAb2

T1 sequence (Q15116 25-288): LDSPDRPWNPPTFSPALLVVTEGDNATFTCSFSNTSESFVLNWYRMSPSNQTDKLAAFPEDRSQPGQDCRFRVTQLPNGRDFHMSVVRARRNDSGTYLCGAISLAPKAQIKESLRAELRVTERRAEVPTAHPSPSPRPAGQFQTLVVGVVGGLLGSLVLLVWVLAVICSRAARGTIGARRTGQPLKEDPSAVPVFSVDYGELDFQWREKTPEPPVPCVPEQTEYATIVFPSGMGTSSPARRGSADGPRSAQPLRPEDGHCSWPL

B1: cemiplimab (Catalog No. A2022, Selleckchem) (antibody, V domains shown)
VH: EVQLLESGGVLVQPGGSLRLSCAASGFTFSNFGMTWVRQAPGKGLEWVSGISGGGRDTYFADSVKGRFTISRDNSKNTLYLQMNSLKGEDTAVYYCVKWGNIYFDYWGQGTLVTVSS
VL: DIQMTQSPSSLSASVGDSITITCRASLSINTFLNWYQQKPGKAPNLLIYAASSLHGGVPSRFSGSGSGTDFTLTIRTLQPEDFATYYCQQSSNTPFTFGPGTVVDFR
EC95 [1]: 0.366 µg/mL
Scaling Factor (ratio of EC50 of PD-1 saturation to the EC50 of mAb2) [2]: 2.67
